Assay [1] concerns the target filamentous actin (F-actin) (rabbit) (UniProt P68135). Briefly: co-sedimentation.
Assay [2] has the same target. Put plainly: single-molecule TIRF microscopy.

Chain of utrophin actin-binding domain (CH1–CH2), wild type (P46939 31-256): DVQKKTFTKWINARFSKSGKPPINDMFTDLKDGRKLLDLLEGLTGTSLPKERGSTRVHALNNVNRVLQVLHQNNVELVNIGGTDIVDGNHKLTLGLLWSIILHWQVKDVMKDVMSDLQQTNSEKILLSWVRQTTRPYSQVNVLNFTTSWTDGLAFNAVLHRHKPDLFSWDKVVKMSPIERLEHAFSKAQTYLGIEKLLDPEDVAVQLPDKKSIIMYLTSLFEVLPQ
Chain of utrophin actin-binding domain with residues 1–27 truncated (Δ-n-term) (P46939 28-3433, stated change not applied): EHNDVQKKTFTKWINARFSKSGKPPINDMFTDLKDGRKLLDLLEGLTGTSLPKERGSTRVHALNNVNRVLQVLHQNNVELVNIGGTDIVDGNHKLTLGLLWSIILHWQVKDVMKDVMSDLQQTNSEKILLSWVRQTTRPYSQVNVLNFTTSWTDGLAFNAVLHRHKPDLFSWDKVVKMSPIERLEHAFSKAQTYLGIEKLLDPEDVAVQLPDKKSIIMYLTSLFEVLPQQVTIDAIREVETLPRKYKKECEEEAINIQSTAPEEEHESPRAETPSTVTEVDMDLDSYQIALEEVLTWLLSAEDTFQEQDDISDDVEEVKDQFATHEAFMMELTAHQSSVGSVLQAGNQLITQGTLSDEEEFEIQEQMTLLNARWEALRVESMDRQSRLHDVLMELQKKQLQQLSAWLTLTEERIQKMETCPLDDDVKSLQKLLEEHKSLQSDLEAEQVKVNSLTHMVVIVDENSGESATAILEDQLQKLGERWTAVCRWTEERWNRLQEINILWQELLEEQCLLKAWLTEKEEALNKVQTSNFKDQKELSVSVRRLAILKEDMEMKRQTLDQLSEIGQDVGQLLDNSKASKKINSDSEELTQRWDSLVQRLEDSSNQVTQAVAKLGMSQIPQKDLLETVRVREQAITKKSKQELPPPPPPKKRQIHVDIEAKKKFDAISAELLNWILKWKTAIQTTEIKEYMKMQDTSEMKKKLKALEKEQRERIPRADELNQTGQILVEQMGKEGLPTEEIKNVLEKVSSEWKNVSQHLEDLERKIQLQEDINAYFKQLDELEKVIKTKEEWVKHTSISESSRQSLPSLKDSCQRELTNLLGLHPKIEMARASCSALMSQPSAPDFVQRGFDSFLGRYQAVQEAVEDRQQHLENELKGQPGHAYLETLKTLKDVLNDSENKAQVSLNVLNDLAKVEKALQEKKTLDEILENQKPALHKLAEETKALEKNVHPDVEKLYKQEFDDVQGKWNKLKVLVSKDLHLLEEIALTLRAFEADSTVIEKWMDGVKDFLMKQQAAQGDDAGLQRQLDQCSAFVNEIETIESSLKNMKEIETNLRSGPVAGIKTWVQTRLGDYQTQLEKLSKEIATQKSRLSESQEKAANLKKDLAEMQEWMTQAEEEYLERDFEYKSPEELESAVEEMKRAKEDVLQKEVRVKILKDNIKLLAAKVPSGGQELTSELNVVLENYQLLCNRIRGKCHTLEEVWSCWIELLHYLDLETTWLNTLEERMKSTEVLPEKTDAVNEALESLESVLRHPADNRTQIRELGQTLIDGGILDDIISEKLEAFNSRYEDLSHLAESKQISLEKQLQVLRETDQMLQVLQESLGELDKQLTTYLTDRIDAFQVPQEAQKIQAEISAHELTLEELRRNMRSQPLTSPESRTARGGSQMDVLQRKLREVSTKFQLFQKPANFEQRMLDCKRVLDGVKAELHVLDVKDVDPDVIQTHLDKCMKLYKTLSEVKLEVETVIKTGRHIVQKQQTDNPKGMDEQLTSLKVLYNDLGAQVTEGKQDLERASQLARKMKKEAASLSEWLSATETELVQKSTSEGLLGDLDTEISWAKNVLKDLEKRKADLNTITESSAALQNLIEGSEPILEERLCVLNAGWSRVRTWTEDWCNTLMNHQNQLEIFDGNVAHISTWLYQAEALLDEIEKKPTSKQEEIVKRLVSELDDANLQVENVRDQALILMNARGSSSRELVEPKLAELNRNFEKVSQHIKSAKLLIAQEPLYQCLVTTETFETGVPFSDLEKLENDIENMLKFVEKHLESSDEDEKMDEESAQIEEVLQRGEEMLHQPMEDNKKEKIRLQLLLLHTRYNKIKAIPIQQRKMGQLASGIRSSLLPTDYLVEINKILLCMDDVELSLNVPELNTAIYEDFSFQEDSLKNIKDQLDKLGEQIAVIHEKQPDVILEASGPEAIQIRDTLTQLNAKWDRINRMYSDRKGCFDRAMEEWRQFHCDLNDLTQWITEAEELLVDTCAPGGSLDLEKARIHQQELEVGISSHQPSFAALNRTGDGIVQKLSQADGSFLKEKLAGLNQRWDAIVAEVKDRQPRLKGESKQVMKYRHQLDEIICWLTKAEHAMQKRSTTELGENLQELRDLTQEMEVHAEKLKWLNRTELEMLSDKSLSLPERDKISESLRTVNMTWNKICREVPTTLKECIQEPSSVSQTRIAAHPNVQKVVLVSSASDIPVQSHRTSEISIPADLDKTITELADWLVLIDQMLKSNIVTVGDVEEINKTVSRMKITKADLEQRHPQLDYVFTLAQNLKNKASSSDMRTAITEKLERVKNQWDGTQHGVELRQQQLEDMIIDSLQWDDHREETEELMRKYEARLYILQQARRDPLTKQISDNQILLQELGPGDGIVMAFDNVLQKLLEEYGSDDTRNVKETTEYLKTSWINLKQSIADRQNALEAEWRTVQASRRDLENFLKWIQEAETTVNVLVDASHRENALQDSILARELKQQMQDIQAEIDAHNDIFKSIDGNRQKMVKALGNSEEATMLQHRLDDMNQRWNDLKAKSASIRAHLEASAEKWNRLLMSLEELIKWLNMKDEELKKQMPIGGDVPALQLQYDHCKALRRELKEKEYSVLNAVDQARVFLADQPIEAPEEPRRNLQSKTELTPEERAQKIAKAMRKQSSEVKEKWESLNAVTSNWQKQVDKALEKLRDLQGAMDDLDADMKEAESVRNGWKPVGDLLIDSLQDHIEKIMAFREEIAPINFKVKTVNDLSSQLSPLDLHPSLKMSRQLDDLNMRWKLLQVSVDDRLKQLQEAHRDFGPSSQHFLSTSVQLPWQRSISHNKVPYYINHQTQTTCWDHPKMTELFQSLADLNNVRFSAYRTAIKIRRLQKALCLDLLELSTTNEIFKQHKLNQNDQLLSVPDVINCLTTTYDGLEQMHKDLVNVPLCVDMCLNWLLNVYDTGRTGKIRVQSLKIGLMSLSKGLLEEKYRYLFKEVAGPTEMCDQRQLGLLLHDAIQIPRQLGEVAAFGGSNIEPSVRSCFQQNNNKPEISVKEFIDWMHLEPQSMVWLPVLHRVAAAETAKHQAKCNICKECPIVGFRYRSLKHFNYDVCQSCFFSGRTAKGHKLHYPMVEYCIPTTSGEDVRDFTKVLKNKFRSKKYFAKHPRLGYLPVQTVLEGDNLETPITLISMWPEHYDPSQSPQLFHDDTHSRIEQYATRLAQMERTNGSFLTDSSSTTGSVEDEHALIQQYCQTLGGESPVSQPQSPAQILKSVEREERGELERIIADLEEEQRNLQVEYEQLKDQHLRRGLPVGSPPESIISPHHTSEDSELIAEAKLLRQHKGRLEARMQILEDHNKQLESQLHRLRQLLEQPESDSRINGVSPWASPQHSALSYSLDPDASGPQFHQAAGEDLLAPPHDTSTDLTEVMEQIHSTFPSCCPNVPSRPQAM
Chain of plectin actin-binding domain (CH1–CH2) (domain or fragment) (Q15149 60-293): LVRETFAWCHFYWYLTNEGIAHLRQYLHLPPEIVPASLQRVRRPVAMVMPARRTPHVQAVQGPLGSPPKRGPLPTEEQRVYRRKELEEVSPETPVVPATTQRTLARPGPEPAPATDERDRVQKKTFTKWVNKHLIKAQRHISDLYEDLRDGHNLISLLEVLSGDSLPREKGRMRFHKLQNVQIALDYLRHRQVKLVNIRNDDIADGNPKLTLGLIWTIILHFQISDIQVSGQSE

As for “utrophin actin-binding domain S158C conjugated with maleimide-750Da PEG (from UniProt P46939 31-256) (domain or fragment)”, the Kd – broadly, the concentration at which binding is half-saturated – in assay [1] came to 53.8 µM. Still for that read-out and setting: the value for “utrophin actin-binding domain with residues 1–27 truncated (Δ-n-term) (from UniProt P46939 28-3433) (domain or fragment)” was 31.4 µM. On to “utrophin actin-binding domain Q33A T36A (from UniProt P46939 31-256) (domain or fragment)”, for which the Kd in assay [1] was determined as 0.4 µM. In assay [2], this substance had a mean dwell time of binding events of 8.49 s. For “plectin actin-binding domain K278E (domain or fragment)”, in assay [1], the Kd was 45.1 µM. This counts as double-digit micromolar.

“utrophin actin-binding domain S158C, unconjugated (from UniProt P46939 31-256) (domain or fragment)” had a Kd in assay [1] of 12.5 µM. Take “utrophin actin-binding domain (CH1–CH2), wild type (from UniProt P46939 31-256) (domain or fragment)”: the Kd in assay [1] came to 13.8 µM. In addition, the mean dwell time of binding events in assay [2] amounted to 0.96 s. “plectin actin-binding domain (CH1–CH2) (domain or fragment)” displayed a Kd in assay [1] of 120 µM.

The record behind these values is PMC6938246.
